Results from patent US20140057807A1 (UNIVERSITY OF CHICAGO, published 2014).
Numbering of substitutions follows the chain as printed.

T1: human Abl SH2 domain (human, UniProt P00519 112-232, limits assumed)
T1 construct: domain: SH2 domain; poly-histidine tagged in selection; tag cleaved for SPR and crystals; also called Ab1SH2; SH2 domain of Abl kinase
T1 sequence (looked up): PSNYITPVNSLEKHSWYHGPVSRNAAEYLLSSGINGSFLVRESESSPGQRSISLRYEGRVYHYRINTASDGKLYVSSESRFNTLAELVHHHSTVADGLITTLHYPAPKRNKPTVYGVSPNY

B1: SEQ ID NO 36 (designed binder)
chain: VSSVPTKLEVVAATPTSLLISWDAPAVTVVYYFITYGETGGNSPVQEFTVPGSKSTATISGLSPGVDYTITVYAWSYELTGDYLQQFSPISINYRT
B2: SEQ ID NO 32 (designed binder)
chain: VSSVPTKLEVVAATPTSLLISWDAPAVTVDLYFITYGETGGNSPVQEFTVPGSKSTATISGLSPGVDYTITVYAWYYGYYGPQYTSPISINYRT
B3: SEQ ID NO 39 (designed binder)
chain: VSSVPTKLEVVAATPTSLLISWDAPAVTVDFYVITYGETGSYGSYPQAFEVPGSKSTATISGLSPGVDYTITVYTESEGYISSSPISINYRT
B4: SEQ ID NO 29 (designed binder)
chain: VSSVPTKLEVVAATPTSLLISWDAPAVTVVYYVITYGETGGNSPVQEFTVPGSKSTATISGLSPGVDYTITVYAWYTFQYDYYVTQSSPISINYRT
B5: SEQ ID NO 33 (designed binder)
chain: B4 chain with V30D, V33Y, T77Q, F78H, Q79D, Y80F, Y83H, T85W, Q86G
B6: SEQ ID NO 28 (designed binder)
chain: VSSVPTKLEVVAATPTSLLISWDAPAVTVDHYVITYGETGGYPSPVQTFTVPGSKSTATISGLSPGVDYTITVYAWDYDWYAIGSPISINYRT
B7: SEQ ID NO 34 (designed binder)
chain: VSSVPTKLEVVAATPTSLLISWDAPAVTVHYYVITYGETGWWGPVQEFTVPGSKSTATISGLSPGVDYTITVYAYWKYSYKYSPISINYRT
B8: SEQ ID NO 35 (designed binder)
chain: B7 chain with H30D, W41A, W42F, P44S, V45G, T49E, Y75K, K77M, K81M, S83N
B9: SEQ ID NO 43 (designed binder)
chain: B7 chain with H30V, Y31H, V33H, W41G, W42N, G43S, Y75D, K77Q, K81M
B10: SEQ ID NO 40 (designed binder)
chain: B7 chain with T28Y, V29H, H30Y, Y31V, V33L, W41G, W42N, G43S, Y75K, K81Q
B11: SEQ ID NO 37 (designed binder)
chain: VSSVPTKLEVVAATPTSLLISWDAPAVTVVYYNITYGETGGNSPVQEFTVPGSKSTATISGLSPGVDYTITVYAWYEYGGYMEIDSPISINYRT
B12: SEQ ID NO 41 (designed binder)
chain: B11 chain with V30D, N33Y, E77W, Y78N, G79D, G80Y, E83S, I84S, D85M
B13: SEQ ID NO 30 (designed binder)
chain: VSSVPTKLEVVAATPTSLLISWDAPAVTVDFYFITYGETGGNSPVQEFTVPGSKSTATISGLSPGVDYTITVYAWDNWDDYYYSPISINYRT
B14: SEQ ID NO 31 (designed binder)
chain: VSSVPTKLEVVAATPTSLLISWDAPAVTVVFYVITYGETGSYSGWQEFEVPGSKSTATISGLSPGVDYTITVYAYYYQNPESYYSPISINYRT
B15: SEQ ID NO 38 (designed binder)
chain: VSSVPTKLEVVAATPTSLLISWDAPAVTVDYYVITYGETGVPYYGWQEFEVPGSKSTATISGLSPGVDYTITVYAYPGSNWFYDWWSPISINYRT
B16: SEQ ID NO 42 (designed binder)
chain: VSSVPTKLEVVAATPTSLLISWDAPAVTVDYYVITYGETGGNSPVQEFEVPGSKSTATISGLSPGVDYTITVYATYGDAYWHYYYSPISINYRT
B17: SEQ ID NO 12 (designed binder)
chain: VSSVPTKLEVVAATPTSLLISWDAPAVTVDHYNITYGETGAFWHYVQAFTVPGSKSTATISGLSPGVDYTITVYAEWDQYVVGSPISINYRT
B18: SEQ ID NO 13 (designed binder)
chain: VSSVPTKLEVVAATPTSLLISWDAPAVTVDYYVITYGETGGGYYSFQAFEVPGSKSTATISGLSPGVDYTITVYAFWPDDYYYGGSEYSPISINYRT
B19: SEQ ID NO 14 (designed binder)
chain: VSSVPTKLEVVAATPTSLLISWDAPAVTVDHYHITYGETGGSWSGYQEFTVPGSKSTATISGLSPGVDYTITVYANSSWYWYNPISINYRT
B20: SEQ ID NO 17 (designed binder)
chain: VSSVPTKLEVVAATPTSLLISWDAPAVTVDYYVITYGETGWYSPPQEFTVPGSKSTATISGLSPGVDYTITVYAWNWSAGLQSPISINYRT
B21: SEQ ID NO 19 (designed binder)
chain: VSSVPTKLEVVAATPTSLLISWDAPAVTVDFYIITYGETGGGYYSYQTFTVPGSKSTATISGLSPGVDYTITVYANEFGKSYPYTMNPISINYRT
B22: SEQ ID NO 21 (designed binder)
chain: VSSVPTKLEVVAATPTSLLISWDAPAVTVDLYHITYGETGGVWSGYQEFTVPGSKSTATISGLSPGVDYTITVYAVQHQEIWPYYYSPISINYRT
B23: SEQ ID NO 24 (designed binder)
chain: VSSVPTKLEVVAATPTSLLISWDAPAVTVDLYIITYGETGSYHGWQTFTVPGSKSTATISGLSPGVDYTITVYADSSTWPYWYYSSPISINYRT
B24: SEQ ID NO 22 (designed binder)
chain: VSSVPTKLEVVAATPTSLLISWDAPAVTVDHYFITYGETGGSWSYYQEFAVPGSKSTATISGLSPGVDYTITVYAYSYEPYYYYNPISINYRT
B25: SEQ ID NO 18 (designed binder)
chain: B13 chain with F31Y, F33V, D76S, N77W, W78K, D79Y, D80W, Y82H, Y83G
B26: SEQ ID NO 15 (designed binder)
chain: VSSVPTKLEVVAATPTSLLISWDAPAVTVDHYVITYGETGAHYYYFQEFEVPGSKSTATISGLSPGVDYTITVYAVSHGTDGNKLYFFSPISINYRT
B27: SEQ ID NO 23 (designed binder)
chain: VSSVPTKLEVVAATPTSLLISWDAPAVTVDFYVITYGETGSFSPPQEFTVPGSKSTATISGLSPGVDYTITVYAMMWGWEYYDYNISPISINYRT
B28: SEQ ID NO 20 (designed binder)
chain: VSSVPTKLEVVAATPTSLLISWDAPAVTVLYYVITYGETGGNSPVQEFTVPGSKSTATISGLSPGVDYTITVYATDYGPGYPYESPISINYRT

Biological target: T1, human Abl SH2 domain
Assay: phage display selection hit, BL1 library

Binding result, binds:
B1
B2
B3
B4
B5
B6
B7
B8
B9
B10
B11
B12
B13
B14
B15
B16

Biological target: human ubiquitin (human, UniProt P0CG48 1-76)
Assay: phage display selection hit, BL1 library

Binding result, binds:
B17
B18
B19
B20
B21
B22
B23
B24
B25
B26
B27
B28
